For the assay, the target named is human EphA2 (human) (UniProt P29317). In words: cell-based or functional assay.

B1: EphA2-BiTE EA2 (VH/VL) × deimmunized anti-CD3 (VH/VL) (bispecific antibody, part only; not given: anti-CD3 scFv, part only)
chain, part: DVKLVESGGGLVKPGGSLKLSCAASGFTFSSYTMSWVRQTPEKRLEWVATISSGGTYTYYPDSVKGRFTISRDNAKNTLYLQMSSLKSEDTAMYYCTREAIFTYWGQGTLVTVSAGGGGSGGGGSGGGGSDIKMTQSPSSMYASLGERVTITCKASQDINNYLSWFQQKPGKSPKTLIYRANRLVDGVPSRFSGSGSGQDYSLTISSLEYEDMGIYYCLKYDEFPYTFGGGTKLEIKGGGGSHHHHHH
Consider B1, for which the EC50 of redirected lysis, 51Cr release, A549 came to 0.184 µg/mL; the EC50 of redirected lysis, 51Cr release, A549, second experiment was found to be 0.163 µg/mL; the EC50 of redirected lysis, 51Cr release, MDA MB231 was found to be 0.0559 µg/mL; the EC50 of redirected lysis, 51Cr release, MDA MB231, second experiment is 0.0721 µg/mL.

B2: EphA2-BiTE EA2 (VL/VH) × deimmunized anti-CD3 (VH/VL) (bispecific antibody, part only; not given: anti-CD3 scFv, part only)
chain, part: DIKMTQSPSSMYASLGERVTITCKASQDINNYLSWFQQKPGKSPKTLIYRANRLVDGVPSRFSGSGSGQDYSLTISSLEYEDMGIYYCLKYDEFPYTFGGGTKLEIKGGGGSGGGGSGGGGSDVKLVESGGGLVKPGGSLKLSCAASGFTFSSYTMSWVRQTPEKRLEWVATISSGGTYTYYPDSVKGRFTISRDNAKNTLYLQMSSLKSEDTAMYYCTREAIFTYWGQGTLVTVSAGGGGSHHHHHH
B2: the EC50 of redirected lysis, 51Cr release, A549, NK-depleted PBMC, E:T 10:1, 18 h worked out at 0.17 µg/mL; the EC50 of redirected lysis, 51Cr release, MDA MB231, NK-depleted PBMC, E:T 10:1, 18 h came out at 0.0538 µg/mL; the EC50 of redirected lysis, 51Cr release, MDA MB231, second experiment stood at 0.086 µg/mL.
